Values quoted from earlier work in publication PMC3208733.
Values joined by “and” are separate entries in the source; they are usually repeats but may differ in a detail not shown here. Equal entries are not always repeated.

Target: scaffolding protein (Salmonella phage P22) (UniProt P26748)

Substance: scaffolding protein (from UniProt P26748)
- Kd: 78 µM and 170 µM
